According to patent US20240270846A1 (published 2024):

Target: T1, CD3 epsilon homodimer protein (UniProt P07766 23-126)
T1 construct: also called CD3 (CD3 epsilon)
Experiment: SPR (Biacore T200), CD3e homodimer on CM4 chip, antibody as analyte; KD ratio vs unaltered GLS3000;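 further: CD3 epsilon homodimer amine-coupled to the sensor surface, antibodies injected as analyte at 25 °C with HBS-EP+ running buffer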
Procedure: An appropriate amount of CD3 epsilon homodimer protein was immobilized onto Sensor chip CM4 (GE Healthcare Japan Corp.) by the amine coupling method. Then, the antibody having an appropriate concentration was injected thereto as an analyte and allowed to interact with the CD3 epsilon homodimer protein on the sensor chip. Then, the sensor chip was regenerated by the injection of 10 mmol/L glycine-HCl (pH 1.5). The assay was conducted at 25 degrees C., and HBS-EP+(GE Healthcare Japan Corp.) was used as a running buffer. […] Each parameter was calculated using Biacore T200 Evaluation Software (GE Healthcare Japan Corp.).
Specifically, when the amount of the GLS3000-containing antibody bound was defined as X and the amount of the L chain one-amino acid altered form bound was defined as Y, a value of Z (ratio of amounts bound)=Y/X was used.

T1 sequence (P07766 23-126): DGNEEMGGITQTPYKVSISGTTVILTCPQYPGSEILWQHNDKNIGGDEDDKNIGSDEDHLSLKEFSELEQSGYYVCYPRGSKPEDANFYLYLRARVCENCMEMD

Binder | KD ratio to GLS3000
CE115HA000/GLS3000 S56I one-arm antibody (antibody, human IgG1, kappa, L234A L235A, N297A, name in Kabat numbering, one-arm IgG1) heavy: QVQLVESGGGVVQPGRSLRLSCAASGFTFSNAWMHWVRQAPGKGLEWVAQIKAKSNNYATYYAESVKGRFTISRDDSKNSLYLQMNSLKTEDTAVYYCRYVHYGAYYGVDAWGQGTTVTVSSASTKGPSVFPLAPSSKSTSGGTAALGCLVKDYFPEPVTVSWNSGALTSGVHTFPAVLQSSGLYSLSSVVTVPSSSLGTQTYICNVNHKPSNTKVDKKVEPKSCDKTHTCPPCPAPEAAGGPSVFLFPPKPKDTLMISRTPEVTCVVVDVSHEDPEVKFNWYVDGVEVHNAKTKPREEQYASTYRVVSVLTVLHQDWLNGKEYKCKVSNKALPAPIEKTISKAKGQPREPQVYTLPPSRCELTKNQVSLSCAVKGFYPSDIAVEWESNGQPENNYKTTPPVLDSDGSFFLVSKLTVDKSRWQQGNVFSCSVMHEALHNHYTQKSLSLSPDYKDDDDK EPKSSDKTHTCPPCPAPELLGGPSVFLFPPKPKDTLMISRTPEVTCVVVDVSHEDPEVKFNWYVDGVEVHNAKTKPREEQYNSTYRVVSVLTVLHQDWLNGKEYKCKVSNKALPAPIEKTISKAKGQPREPQVCTLPPSRDELTKNQVSLWCLVKGFYPSDIAVEWESNGQPENNYKTTPPVLDSDGSFFLYSKLTVDKSRWQQGNVFSCSVMHEALHNRYTQKSLSLSP light: DIVMTQSPLSLPVTPGEPASISCRSSQSLVHSNRNTYLHWYQQKPGQAPRLLIYKVSNRFIGVPDRFSGSGSGTDFTLKISRVEAEDVGVYYCGQGTQVPYTFGQGTKLEIKRTVAAPSVFIFPPSDEQLKSGTASVVCLLNNFYPREAKVQWKVDNALQSGNSQESVTEQDSKDSTYSLSSTLTLSKADYEKHKVYACEVTHQGLSSPVTKSFNRGEC | 1.01 ratio
CE115HA000/GLS3000 S56M one-arm antibody (antibody, human IgG1, kappa, L234A L235A, N297A, name in Kabat numbering, one-arm IgG1) heavy: QVQLVESGGGVVQPGRSLRLSCAASGFTFSNAWMHWVRQAPGKGLEWVAQIKAKSNNYATYYAESVKGRFTISRDDSKNSLYLQMNSLKTEDTAVYYCRYVHYGAYYGVDAWGQGTTVTVSSASTKGPSVFPLAPSSKSTSGGTAALGCLVKDYFPEPVTVSWNSGALTSGVHTFPAVLQSSGLYSLSSVVTVPSSSLGTQTYICNVNHKPSNTKVDKKVEPKSCDKTHTCPPCPAPEAAGGPSVFLFPPKPKDTLMISRTPEVTCVVVDVSHEDPEVKFNWYVDGVEVHNAKTKPREEQYASTYRVVSVLTVLHQDWLNGKEYKCKVSNKALPAPIEKTISKAKGQPREPQVYTLPPSRCELTKNQVSLSCAVKGFYPSDIAVEWESNGQPENNYKTTPPVLDSDGSFFLVSKLTVDKSRWQQGNVFSCSVMHEALHNHYTQKSLSLSPDYKDDDDK EPKSSDKTHTCPPCPAPELLGGPSVFLFPPKPKDTLMISRTPEVTCVVVDVSHEDPEVKFNWYVDGVEVHNAKTKPREEQYNSTYRVVSVLTVLHQDWLNGKEYKCKVSNKALPAPIEKTISKAKGQPREPQVCTLPPSRDELTKNQVSLWCLVKGFYPSDIAVEWESNGQPENNYKTTPPVLDSDGSFFLYSKLTVDKSRWQQGNVFSCSVMHEALHNRYTQKSLSLSP light: DIVMTQSPLSLPVTPGEPASISCRSSQSLVHSNRNTYLHWYQQKPGQAPRLLIYKVSNRFMGVPDRFSGSGSGTDFTLKISRVEAEDVGVYYCGQGTQVPYTFGQGTKLEIKRTVAAPSVFIFPPSDEQLKSGTASVVCLLNNFYPREAKVQWKVDNALQSGNSQESVTEQDSKDSTYSLSSTLTLSKADYEKHKVYACEVTHQGLSSPVTKSFNRGEC | 0.93 ratio
CE115HA000/GLS3000 S56K one-arm antibody (antibody, human IgG1, kappa, L234A L235A, N297A, name in Kabat numbering, one-arm IgG1) heavy: QVQLVESGGGVVQPGRSLRLSCAASGFTFSNAWMHWVRQAPGKGLEWVAQIKAKSNNYATYYAESVKGRFTISRDDSKNSLYLQMNSLKTEDTAVYYCRYVHYGAYYGVDAWGQGTTVTVSSASTKGPSVFPLAPSSKSTSGGTAALGCLVKDYFPEPVTVSWNSGALTSGVHTFPAVLQSSGLYSLSSVVTVPSSSLGTQTYICNVNHKPSNTKVDKKVEPKSCDKTHTCPPCPAPEAAGGPSVFLFPPKPKDTLMISRTPEVTCVVVDVSHEDPEVKFNWYVDGVEVHNAKTKPREEQYASTYRVVSVLTVLHQDWLNGKEYKCKVSNKALPAPIEKTISKAKGQPREPQVYTLPPSRCELTKNQVSLSCAVKGFYPSDIAVEWESNGQPENNYKTTPPVLDSDGSFFLVSKLTVDKSRWQQGNVFSCSVMHEALHNHYTQKSLSLSPDYKDDDDK EPKSSDKTHTCPPCPAPELLGGPSVFLFPPKPKDTLMISRTPEVTCVVVDVSHEDPEVKFNWYVDGVEVHNAKTKPREEQYNSTYRVVSVLTVLHQDWLNGKEYKCKVSNKALPAPIEKTISKAKGQPREPQVCTLPPSRDELTKNQVSLWCLVKGFYPSDIAVEWESNGQPENNYKTTPPVLDSDGSFFLYSKLTVDKSRWQQGNVFSCSVMHEALHNRYTQKSLSLSP light: DIVMTQSPLSLPVTPGEPASISCRSSQSLVHSNRNTYLHWYQQKPGQAPRLLIYKVSNRFKGVPDRFSGSGSGTDFTLKISRVEAEDVGVYYCGQGTQVPYTFGQGTKLEIKRTVAAPSVFIFPPSDEQLKSGTASVVCLLNNFYPREAKVQWKVDNALQSGNSQESVTEQDSKDSTYSLSSTLTLSKADYEKHKVYACEVTHQGLSSPVTKSFNRGEC | 1.21 ratio
CE115HA000/GLS3000 S56L one-arm antibody (antibody, human IgG1, kappa, L234A L235A, N297A, name in Kabat numbering, one-arm IgG1) heavy: QVQLVESGGGVVQPGRSLRLSCAASGFTFSNAWMHWVRQAPGKGLEWVAQIKAKSNNYATYYAESVKGRFTISRDDSKNSLYLQMNSLKTEDTAVYYCRYVHYGAYYGVDAWGQGTTVTVSSASTKGPSVFPLAPSSKSTSGGTAALGCLVKDYFPEPVTVSWNSGALTSGVHTFPAVLQSSGLYSLSSVVTVPSSSLGTQTYICNVNHKPSNTKVDKKVEPKSCDKTHTCPPCPAPEAAGGPSVFLFPPKPKDTLMISRTPEVTCVVVDVSHEDPEVKFNWYVDGVEVHNAKTKPREEQYASTYRVVSVLTVLHQDWLNGKEYKCKVSNKALPAPIEKTISKAKGQPREPQVYTLPPSRCELTKNQVSLSCAVKGFYPSDIAVEWESNGQPENNYKTTPPVLDSDGSFFLVSKLTVDKSRWQQGNVFSCSVMHEALHNHYTQKSLSLSPDYKDDDDK EPKSSDKTHTCPPCPAPELLGGPSVFLFPPKPKDTLMISRTPEVTCVVVDVSHEDPEVKFNWYVDGVEVHNAKTKPREEQYNSTYRVVSVLTVLHQDWLNGKEYKCKVSNKALPAPIEKTISKAKGQPREPQVCTLPPSRDELTKNQVSLWCLVKGFYPSDIAVEWESNGQPENNYKTTPPVLDSDGSFFLYSKLTVDKSRWQQGNVFSCSVMHEALHNRYTQKSLSLSP light: DIVMTQSPLSLPVTPGEPASISCRSSQSLVHSNRNTYLHWYQQKPGQAPRLLIYKVSNRFLGVPDRFSGSGSGTDFTLKISRVEAEDVGVYYCGQGTQVPYTFGQGTKLEIKRTVAAPSVFIFPPSDEQLKSGTASVVCLLNNFYPREAKVQWKVDNALQSGNSQESVTEQDSKDSTYSLSSTLTLSKADYEKHKVYACEVTHQGLSSPVTKSFNRGEC | 1.03 ratio

Other lines, results leading:

KD ratio to GLS3000 | Binder
0.98 ratio | CE115HA000/GLS3000 S56P one-arm antibody (antibody, human IgG1, kappa, L234A L235A, N297A, name in Kabat numbering, one-arm IgG1) heavy: QVQLVESGGGVVQPGRSLRLSCAASGFTFSNAWMHWVRQAPGKGLEWVAQIKAKSNNYATYYAESVKGRFTISRDDSKNSLYLQMNSLKTEDTAVYYCRYVHYGAYYGVDAWGQGTTVTVSSASTKGPSVFPLAPSSKSTSGGTAALGCLVKDYFPEPVTVSWNSGALTSGVHTFPAVLQSSGLYSLSSVVTVPSSSLGTQTYICNVNHKPSNTKVDKKVEPKSCDKTHTCPPCPAPEAAGGPSVFLFPPKPKDTLMISRTPEVTCVVVDVSHEDPEVKFNWYVDGVEVHNAKTKPREEQYASTYRVVSVLTVLHQDWLNGKEYKCKVSNKALPAPIEKTISKAKGQPREPQVYTLPPSRCELTKNQVSLSCAVKGFYPSDIAVEWESNGQPENNYKTTPPVLDSDGSFFLVSKLTVDKSRWQQGNVFSCSVMHEALHNHYTQKSLSLSPDYKDDDDK EPKSSDKTHTCPPCPAPELLGGPSVFLFPPKPKDTLMISRTPEVTCVVVDVSHEDPEVKFNWYVDGVEVHNAKTKPREEQYNSTYRVVSVLTVLHQDWLNGKEYKCKVSNKALPAPIEKTISKAKGQPREPQVCTLPPSRDELTKNQVSLWCLVKGFYPSDIAVEWESNGQPENNYKTTPPVLDSDGSFFLYSKLTVDKSRWQQGNVFSCSVMHEALHNRYTQKSLSLSP light: DIVMTQSPLSLPVTPGEPASISCRSSQSLVHSNRNTYLHWYQQKPGQAPRLLIYKVSNRFPGVPDRFSGSGSGTDFTLKISRVEAEDVGVYYCGQGTQVPYTFGQGTKLEIKRTVAAPSVFIFPPSDEQLKSGTASVVCLLNNFYPREAKVQWKVDNALQSGNSQESVTEQDSKDSTYSLSSTLTLSKADYEKHKVYACEVTHQGLSSPVTKSFNRGEC
0.9 ratio | CE115HA000/GLS3000 S56N one-arm antibody (antibody, human IgG1, kappa, L234A L235A, N297A, name in Kabat numbering, one-arm IgG1) heavy: QVQLVESGGGVVQPGRSLRLSCAASGFTFSNAWMHWVRQAPGKGLEWVAQIKAKSNNYATYYAESVKGRFTISRDDSKNSLYLQMNSLKTEDTAVYYCRYVHYGAYYGVDAWGQGTTVTVSSASTKGPSVFPLAPSSKSTSGGTAALGCLVKDYFPEPVTVSWNSGALTSGVHTFPAVLQSSGLYSLSSVVTVPSSSLGTQTYICNVNHKPSNTKVDKKVEPKSCDKTHTCPPCPAPEAAGGPSVFLFPPKPKDTLMISRTPEVTCVVVDVSHEDPEVKFNWYVDGVEVHNAKTKPREEQYASTYRVVSVLTVLHQDWLNGKEYKCKVSNKALPAPIEKTISKAKGQPREPQVYTLPPSRCELTKNQVSLSCAVKGFYPSDIAVEWESNGQPENNYKTTPPVLDSDGSFFLVSKLTVDKSRWQQGNVFSCSVMHEALHNHYTQKSLSLSPDYKDDDDK EPKSSDKTHTCPPCPAPELLGGPSVFLFPPKPKDTLMISRTPEVTCVVVDVSHEDPEVKFNWYVDGVEVHNAKTKPREEQYNSTYRVVSVLTVLHQDWLNGKEYKCKVSNKALPAPIEKTISKAKGQPREPQVCTLPPSRDELTKNQVSLWCLVKGFYPSDIAVEWESNGQPENNYKTTPPVLDSDGSFFLYSKLTVDKSRWQQGNVFSCSVMHEALHNRYTQKSLSLSP light: DIVMTQSPLSLPVTPGEPASISCRSSQSLVHSNRNTYLHWYQQKPGQAPRLLIYKVSNRFNGVPDRFSGSGSGTDFTLKISRVEAEDVGVYYCGQGTQVPYTFGQGTKLEIKRTVAAPSVFIFPPSDEQLKSGTASVVCLLNNFYPREAKVQWKVDNALQSGNSQESVTEQDSKDSTYSLSSTLTLSKADYEKHKVYACEVTHQGLSSPVTKSFNRGEC
